Our source for the EC50, agonist activity in an Aequorin assay and EC50, activity in an Aequorin assay (agonist) values is US20180038857A1.

Assay in all cases: cell-based or functional assay
Experiment [1] addresses T1, hCCR6 (human) (UniProt P51684).
T1 sequence (looked up): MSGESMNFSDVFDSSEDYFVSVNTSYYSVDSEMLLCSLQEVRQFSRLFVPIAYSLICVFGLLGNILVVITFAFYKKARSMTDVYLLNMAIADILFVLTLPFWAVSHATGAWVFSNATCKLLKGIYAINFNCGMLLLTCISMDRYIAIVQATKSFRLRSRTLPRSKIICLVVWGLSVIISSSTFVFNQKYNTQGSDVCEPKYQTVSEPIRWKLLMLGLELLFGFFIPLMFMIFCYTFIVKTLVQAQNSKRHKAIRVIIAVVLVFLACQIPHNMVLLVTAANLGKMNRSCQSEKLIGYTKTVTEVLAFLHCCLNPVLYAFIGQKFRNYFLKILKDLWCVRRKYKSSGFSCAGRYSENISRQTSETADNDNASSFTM

The target of experiment [2] is hCCR9 (human) (UniProt P51686).
Experiment [3] concerns the target hCXCR3 (human) (UniProt P49682).
Experiment [4] has as its target hCCR3 (human) (UniProt P51677).

hCCR9 (human), sequence (P51686 whole entry): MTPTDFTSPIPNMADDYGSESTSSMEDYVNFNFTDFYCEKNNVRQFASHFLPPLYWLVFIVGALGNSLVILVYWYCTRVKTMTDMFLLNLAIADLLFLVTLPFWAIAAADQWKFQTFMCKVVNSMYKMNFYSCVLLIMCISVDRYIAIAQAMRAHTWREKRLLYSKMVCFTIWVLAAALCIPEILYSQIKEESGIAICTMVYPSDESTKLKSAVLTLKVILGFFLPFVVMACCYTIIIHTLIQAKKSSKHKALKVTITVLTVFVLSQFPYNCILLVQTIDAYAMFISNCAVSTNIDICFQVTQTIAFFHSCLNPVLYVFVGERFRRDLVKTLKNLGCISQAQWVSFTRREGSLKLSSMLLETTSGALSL
recombinant native MIP-3α, sequence (P78556 27-96 limits assumed): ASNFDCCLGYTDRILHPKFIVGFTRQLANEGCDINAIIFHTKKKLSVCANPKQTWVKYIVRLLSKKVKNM
hCCR3 (human), sequence (P51677 whole entry): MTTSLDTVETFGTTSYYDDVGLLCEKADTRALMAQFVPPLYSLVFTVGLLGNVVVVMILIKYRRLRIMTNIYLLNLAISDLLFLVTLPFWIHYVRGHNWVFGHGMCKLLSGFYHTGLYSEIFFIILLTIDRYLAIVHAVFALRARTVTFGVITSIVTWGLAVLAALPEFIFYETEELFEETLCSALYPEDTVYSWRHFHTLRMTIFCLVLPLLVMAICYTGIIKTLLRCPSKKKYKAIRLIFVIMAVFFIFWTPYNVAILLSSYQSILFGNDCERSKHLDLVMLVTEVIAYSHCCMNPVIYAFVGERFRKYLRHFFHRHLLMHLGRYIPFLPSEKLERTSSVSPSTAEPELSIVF
hCXCR3 (human), sequence (P49682 whole entry): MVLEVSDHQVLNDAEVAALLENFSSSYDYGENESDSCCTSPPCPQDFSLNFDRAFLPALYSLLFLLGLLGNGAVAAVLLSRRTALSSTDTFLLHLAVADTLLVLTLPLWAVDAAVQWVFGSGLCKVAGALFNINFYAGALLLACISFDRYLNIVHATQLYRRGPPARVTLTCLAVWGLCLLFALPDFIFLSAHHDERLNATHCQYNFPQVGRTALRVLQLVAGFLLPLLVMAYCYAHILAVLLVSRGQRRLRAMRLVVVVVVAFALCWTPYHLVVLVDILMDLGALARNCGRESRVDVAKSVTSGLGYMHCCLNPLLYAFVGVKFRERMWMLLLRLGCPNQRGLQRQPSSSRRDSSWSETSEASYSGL
UniProt O15444, sequence (O15444 other isoform, or with tags, fused parts or gaps limits assumed): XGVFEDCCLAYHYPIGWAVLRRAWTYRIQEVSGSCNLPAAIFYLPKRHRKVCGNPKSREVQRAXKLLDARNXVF

Regarding “recombinant native MIP-3α (from UniProt P78556 27-96) (ligand)”, the EC50, agonist activity in an Aequorin assay in experiment [1] came out at 1 nM.
Substance “recombinant native TECK (from UniProt O15444 24-150) (ligand)” yielded an EC50, agonist activity in an Aequorin assay in experiment [2] of 67.9 nM.
Turning to “recombinant native IP-10 (from UniProt P02778 22-98) (ligand)”, the EC50, agonist activity in an Aequorin assay in experiment [3] is 4.4 nM.
In experiment [4], “recombinant native eotaxin (from UniProt P51671 24-97) (ligand)” gave an EC50, activity in an Aequorin assay (agonist) of 10.7 nM.
In the case of “biotinTECK(Met to Nleu substitution) (CCL25): TECK derivatised at the ε-amino side chain functionality of Lys72 with PEG-Biotin (from UniProt O15444 25-97) (ligand)”, the EC50, agonist activity in an Aequorin assay in experiment [2] amounted to 63.6 nM.
